Data from US20170327598A1 (published 2017).
Where two headings read alike, the source gives them in different places.

Key:
Experiment in all cases: sandwich ELISA, STAT protein coated at 0.5 µg/mL
[1] = biological target: T1, STAT 1 protein (UniProt P42224 1-750, limits assumed)
T1 sequence (looked up): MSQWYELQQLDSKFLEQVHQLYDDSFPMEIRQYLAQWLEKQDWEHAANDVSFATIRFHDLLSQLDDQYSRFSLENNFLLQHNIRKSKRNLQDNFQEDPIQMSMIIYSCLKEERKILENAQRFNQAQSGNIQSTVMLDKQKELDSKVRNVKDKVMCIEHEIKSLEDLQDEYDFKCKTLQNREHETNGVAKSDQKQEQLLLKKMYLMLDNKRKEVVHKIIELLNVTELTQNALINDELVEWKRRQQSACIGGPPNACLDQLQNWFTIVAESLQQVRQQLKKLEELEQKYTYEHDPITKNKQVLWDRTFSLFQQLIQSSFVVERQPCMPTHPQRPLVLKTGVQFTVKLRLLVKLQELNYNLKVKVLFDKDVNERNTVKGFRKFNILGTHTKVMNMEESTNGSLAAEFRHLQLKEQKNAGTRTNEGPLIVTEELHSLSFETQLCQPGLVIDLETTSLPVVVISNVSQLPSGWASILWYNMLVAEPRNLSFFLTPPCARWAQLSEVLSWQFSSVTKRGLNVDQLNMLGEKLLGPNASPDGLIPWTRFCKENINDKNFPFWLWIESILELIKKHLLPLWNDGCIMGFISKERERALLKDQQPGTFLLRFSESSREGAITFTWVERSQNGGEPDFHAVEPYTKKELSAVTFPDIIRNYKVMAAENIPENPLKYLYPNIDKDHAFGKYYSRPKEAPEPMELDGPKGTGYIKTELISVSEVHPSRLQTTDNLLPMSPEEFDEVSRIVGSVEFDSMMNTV

[2] = biological target: T2, STAT 2 protein (UniProt P52630 1-851, limits assumed)
[3] = biological target: T3, STAT 3 protein (UniProt P40763 1-770, limits assumed)
[4] = biological target: T4, STAT 4 protein (UniProt Q14765 1-748, limits assumed)
T4 sequence (looked up): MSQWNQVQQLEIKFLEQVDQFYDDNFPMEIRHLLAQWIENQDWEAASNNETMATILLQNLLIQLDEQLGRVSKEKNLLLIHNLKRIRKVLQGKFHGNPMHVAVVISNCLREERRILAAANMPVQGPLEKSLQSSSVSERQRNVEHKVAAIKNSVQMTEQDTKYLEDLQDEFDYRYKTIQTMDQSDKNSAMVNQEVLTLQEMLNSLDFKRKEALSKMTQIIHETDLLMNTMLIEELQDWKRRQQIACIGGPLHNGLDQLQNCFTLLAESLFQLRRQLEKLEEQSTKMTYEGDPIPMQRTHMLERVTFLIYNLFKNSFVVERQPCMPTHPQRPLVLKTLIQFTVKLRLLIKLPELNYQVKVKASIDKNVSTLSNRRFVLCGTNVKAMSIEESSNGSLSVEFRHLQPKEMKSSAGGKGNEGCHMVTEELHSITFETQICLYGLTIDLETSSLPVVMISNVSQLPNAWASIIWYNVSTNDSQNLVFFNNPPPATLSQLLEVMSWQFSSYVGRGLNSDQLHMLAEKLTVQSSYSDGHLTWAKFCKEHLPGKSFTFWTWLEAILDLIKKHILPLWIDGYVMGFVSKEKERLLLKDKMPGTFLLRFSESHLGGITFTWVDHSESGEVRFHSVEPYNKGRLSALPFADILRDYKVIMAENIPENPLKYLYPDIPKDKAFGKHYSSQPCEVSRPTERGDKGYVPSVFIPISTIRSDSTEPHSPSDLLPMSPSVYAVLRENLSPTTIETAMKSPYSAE

[5] = biological target: T5, STAT 5a protein (UniProt P42229 1-794, limits assumed)
T5 sequence (looked up): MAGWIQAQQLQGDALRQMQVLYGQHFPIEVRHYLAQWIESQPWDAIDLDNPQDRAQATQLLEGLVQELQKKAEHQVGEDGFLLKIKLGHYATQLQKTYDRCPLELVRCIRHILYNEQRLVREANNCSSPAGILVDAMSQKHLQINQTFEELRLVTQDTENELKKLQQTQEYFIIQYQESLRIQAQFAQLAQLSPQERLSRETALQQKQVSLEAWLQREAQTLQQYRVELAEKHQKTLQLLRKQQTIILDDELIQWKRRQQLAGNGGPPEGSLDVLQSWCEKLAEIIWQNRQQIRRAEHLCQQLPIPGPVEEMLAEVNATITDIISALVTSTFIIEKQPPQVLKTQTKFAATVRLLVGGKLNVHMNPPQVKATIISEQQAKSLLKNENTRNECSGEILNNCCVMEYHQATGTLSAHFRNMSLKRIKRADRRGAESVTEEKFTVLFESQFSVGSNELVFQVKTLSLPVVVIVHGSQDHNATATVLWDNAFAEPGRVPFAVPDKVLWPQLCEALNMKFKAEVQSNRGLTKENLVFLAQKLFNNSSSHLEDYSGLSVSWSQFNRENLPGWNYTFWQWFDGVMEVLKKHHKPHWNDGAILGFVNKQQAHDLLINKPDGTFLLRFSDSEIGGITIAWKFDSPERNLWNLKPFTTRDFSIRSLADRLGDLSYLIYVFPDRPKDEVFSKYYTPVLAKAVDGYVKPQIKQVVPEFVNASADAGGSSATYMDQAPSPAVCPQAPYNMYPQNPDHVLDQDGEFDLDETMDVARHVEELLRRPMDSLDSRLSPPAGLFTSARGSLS

[6] = biological target: T1, STAT 1 protein; remark: listed apart in the source
[7] = biological target: T2, STAT 2 protein; remark: listed apart in the source
[8] = biological target: T3, STAT 3 protein; remark: listed apart in the source
[9] = biological target: T4, STAT 4 protein; remark: listed apart in the source

T2 sequence (P52630 whole entry): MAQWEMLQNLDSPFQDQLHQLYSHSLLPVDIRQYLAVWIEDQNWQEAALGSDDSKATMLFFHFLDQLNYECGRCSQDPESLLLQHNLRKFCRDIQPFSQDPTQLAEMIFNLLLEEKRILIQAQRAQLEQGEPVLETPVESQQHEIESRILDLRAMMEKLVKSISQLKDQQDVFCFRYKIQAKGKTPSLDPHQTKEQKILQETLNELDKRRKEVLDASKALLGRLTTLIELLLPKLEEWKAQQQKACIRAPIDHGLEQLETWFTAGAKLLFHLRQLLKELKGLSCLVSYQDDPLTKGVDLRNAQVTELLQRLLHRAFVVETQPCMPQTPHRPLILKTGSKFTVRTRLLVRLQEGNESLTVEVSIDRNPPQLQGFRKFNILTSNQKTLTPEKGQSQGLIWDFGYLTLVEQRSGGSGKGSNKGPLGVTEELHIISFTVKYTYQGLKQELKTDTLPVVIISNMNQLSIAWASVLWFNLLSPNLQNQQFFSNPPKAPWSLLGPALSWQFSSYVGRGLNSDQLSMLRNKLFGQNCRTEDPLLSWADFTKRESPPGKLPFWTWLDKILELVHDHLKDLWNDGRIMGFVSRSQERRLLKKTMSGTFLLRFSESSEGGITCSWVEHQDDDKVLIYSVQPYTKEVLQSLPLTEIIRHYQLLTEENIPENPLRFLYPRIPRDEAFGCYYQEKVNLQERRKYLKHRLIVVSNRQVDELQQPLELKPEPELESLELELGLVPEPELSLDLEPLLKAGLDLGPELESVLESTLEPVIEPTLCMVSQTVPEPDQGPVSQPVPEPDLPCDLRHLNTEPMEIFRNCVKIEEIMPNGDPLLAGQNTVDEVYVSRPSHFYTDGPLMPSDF

- Mean OD450 [1]: 3.16 OD450
- Mean OD450 [2]: 3.34 OD450
- Mean OD450 [3]: 3.67 OD450
- Mean OD450 [4]: 3.67 OD450
- Mean OD450 [5]: 3.32 OD450
- Mean OD450 [6]: 0.159 OD450
- Mean OD450 [7]: 0.186 OD450
- Mean OD450 [8]: 0.431 OD450
- Mean OD450 [9]: 0.833 OD450
B1: anti-STAT3 VHH13 (SEQ ID NO:3) sdAb (VHH)
VHH: HVQLVESGGGSVQAGGSLRLSCAASGANGGRSCMGWFRQVPGKEREGVSGISTGGLITYYADSVKGRFTISQDNTKNTLYLQMNSLKPEDTAMYYCATSRFDCYRGSWFNRYMYNSWGQGTQVTVSS
